From patent publication US11945858B2, “Antibodies and antibody fragments against HNAV1.7 channel and their use in pain and cancer indications” (NATIONAL RESEARCH COUNCIL OF CANADA, priority 2018, dated 2024)
Values joined by “and” are separate entries in the source; they are usually repeats but may differ in a detail not shown here. Equal values may be shown once. “Also recorded” adds a separate entry of the source.

B1: 1G5: mouse mAb IgG1, k binding both FC5 and DIE3IR, no effect on hNav1.7 currents; negative control; SEQ ID NO: 21 and 27 (antibody, V domains shown)
VH: QVQLQQPGAELVKPGASVKLSCKASGYTFTSYWINWVKQRPGQGLEWIGNIYPGNSNTNYNEKFKSKATLTVDKSSSTAYMQLSSLTSEDSAVYYCARRYYYDYDDAMDYWGQGTSVTVSSAKTTPPSVYPLAP
VL: DIVLTQSPASLAVSLGQRATISCRASESVDSYGNGFMHWYQQKPGQPPKLLIYRASNLESGIPARVSGSGSRTDFTLTINPVEADDVATYYCQQSNEDPWTFGGGTKLEIKRADAAPTVSIFPPSS
modifications: Heavy chain of the 1G5 and 1G9 antibodies without leader sequence; Light chain of the 1G5 and 1G9 antibodies without leader sequence

Assays:
[1] = system: lung metastasis of prostate cancer; conditions: rat, in vivo; cited from earlier work
[2] = system: glioblastoma U87MG cells; test: Soft agar assay, U87MG
[3] = system: ovarian cancer SKOV-3 cells; test: Soft agar assay, SKOV-3
[4] = system: glioblastoma U87MGvIII cells; test: Soft agar assay, U87MGvIII
[5] = system: CHO-3E7; test: Cell-ELISA on live CHO-3E7 cells; type: cell-based, Chinese hamster; conditions: hybridoma supernatant; OD450 nm; duplicate 1
Description: Cell-ELISA. Sterile 96-well plates (Costar #3595) were pre-treated with 50 μl/well of branched polyethyleneimine (PEI, Sigma Cat #408727) at 25 μg/ml in PBS for 30 min at room temperature. PEI was removed and CHO-3E7 or hNAv1.7-CHO (ChanTest cat #CT4003) were seeded at 6×10^5 cells per well in FreeStyle F17 Expression Medium (Gibco Cat #A1383501) and incubated overnight at 37° C., 5% CO2. Microplates were blocked with Starting block (Thermofisher Cat #37538) for 30 min at room temperature, and 50 μl of hybridoma supernatants were added and incubated at 4° C. for 3 h. Plates were washed 5 times with PBS and incubated for one hour at 4° C. with 50 μl of secondary antibody HRP-conjugated F(ab′)2 goat anti-mouse IgG (H+L) (Jackson Immunoresearch #115-036-062) diluted 1/5000 in blocking buffer. After 10 washes with PBS, 50 μl of TMB substrate solution (Pierce Cat #34021) was added and further incubated for 60 min at room temperature. Twenty-five μl/well of stop solution ([…] 1M) was added and OD450 nm measurements were done using a microplate reader (Spectramax 340 PC, Molecular Devices).

[6] = target: T1, FC5DIE3IR (Homo sapiens, UniProt Q15858); test: Evaluation of apparent affinity of purified mAbs in ELISA; type: binding; conditions: purified mAb, OD 405 nm
T1 construct: The supernatant was collected and loaded on a 5 ml MabSelect™ SuRe™ column; made in house; host or cells: CHO-3E7 (transient, pTT5 vector), purified from supernatant
Description: Screening. Hybridoma supernatants were screened by ELISA to detect specific binders. To this end, 96-well half-area plates (Costar #3690) were coated with 25 μl of FC5DIE3IR or FC5-VHH or FC5-hFc-1X0 at 5 μg/ml in PBS and incubated overnight at 4° C. Microplates were washed 3 times with PBS, blocked with PBS-BSA 1%, and 25 μl of hybridoma supernatants were added and incubated at 37° C., 5% CO2 for 2 hours. Plates were washed 4 times with PBS-Tween 20 0.05% and incubated for one hour at 37° C., 5% CO2 with 25 μl of secondary antibody alkaline phosphatase conjugated F(ab′)2 goat anti-mouse IgG Fc-gamma specific (Jackson Immunoresearch #115-056-071) diluted 1/3000 in blocking buffer. After 4 washes with PBS-Tween 20 0.05%, 25 μl of a 1 mg/ml pNPP substrate solution was added and further incubated for one hour at 37° C. OD405 nm measurements were done using a microplate reader (Spectramax 340 PC, Molecular Devices).
Evaluation of apparent affinity in ELISA. Purified antibodies were assessed for their binding activity by ELISA in a dose-dependent binding curve. […] The data were analyzed with GraphPad Prism software using one-site specific binding-with Hill slope non-linear regression curve fit model to determine Bmax (maximum specific binding) and Kdapp (concentration needed to achieve a half-maximum binding at equilibrium) for each mAb tested. […]

[7] = target: hNav1.7 channels (Homo sapiens, UniProt Q15858, W1161R); test: Patch-clamp whole-cell recordings in hNav1.7-HEK293 cells; type: cell-based; conditions: example recordings; 1-3 μM
[8] = target: T1, FC5DIE3IR; test: Surface Plasmon Resonance of mAbs, FC5DIE3IR; type: binding; conditions: Fc-captured mAb, FC5-DIE3IR flowed; SCK; 25 °C
Description: (§1) Surface Plasmon Resonance of mAbs. FC5 and FC5DIE3IR proteins were SEC purified using a Superdex 75 column (GE Healthcare) connected to an AKTAPurifier (GE Healthcare) in HBS-EP+ running buffer (10 mM HEPES, pH 7.4, containing 150 mM NaCl, 3 mM EDTA and 0.05% P20) at a flow rate of 1 ml/min. Monomeric eluted peaks were used to flow over Fc-capture 3A8 mAb surfaces. To prepare the 3A8 mAb surfaces, approximately 6000 RUs of anti-mouse IgG (GE Healthcare) was first immobilized on CM5 Series S sensor chips (GE Healthcare) at pH 5.0, using standard amine coupling methods previously reported (Hussack et al., 2011) and according to the manufacturer's instructions (GE Healthcare). HBS-EP running buffer used for SPR experiments. The mAb 3A8 was captured on the anti-mouse IgG surface using 10 μg/ml of mAb, 30 sec contact time and flow rate of 10 μl/min. IMAC-purified DI-D VHH was passed through a Superdex 75 (GE Healthcare) column for SEC purification in HBS-EP buffer (10 mM HEPES, pH 7.4, containing 150 mM NaCl, 3 mM EDTA and 0.005% P20), connected to an AKTAPurifier (GE Healthcare) at a flow rate of 1 ml/min. Test binding experiments of FC5 control and FC5DIE3IR involved flowing 1 μM concentrations of SEC-pure material over the mAb surface at a flow rate of 30 μl/min for 5 min. Surfaces could be regenerated using 10 mM glycine, pH 1.7, with a 120 sec pulse at 20 μl/min. All SPR experiments were evaluated with Biacore T200 Software v 3.0. For kinetic analysis, single cycle kinetic analysis was used by flowing a range of FC5DIE3IR concentrations (320 nM-20 nM) at a flow rate of 30 μl/min, with 600 sec contact time and 1200 sec dissociation. Regeneration conditions were the same as above. Data were fit to a 1:1 binding model and analyzed using the Biacore T200 Software v3.0.
(§2) Surfaces were regenerated by washing with running buffer (HBS-EP). Data were analyzed with BIAevaluation 4.1 software as described (Hussack et al., 2011) and affinities determined using the steady state binding model.
(§3) Surface Plasmon Resonance (SPR) for monoclonal antibodies.

[9] = system: VHH FC5; test: Surface Plasmon Resonance of mAbs, FC5 control; type: binding; conditions: 25 °C
Description: as §1, §2, §3

[10] = target: T1, FC5DIE3IR; test: Hydrogen-Deuterium Exchange Mass Spectrometry (HDX-MS); type: binding; conditions: labelling 1, 10 and 60 min

Sequence of VHH FC5 (as listed by the source): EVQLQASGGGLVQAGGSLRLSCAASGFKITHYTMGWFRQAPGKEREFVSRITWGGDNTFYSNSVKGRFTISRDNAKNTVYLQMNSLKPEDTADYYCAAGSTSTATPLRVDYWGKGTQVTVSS

Molecule	Reduction of the number of lung metastasis [1] [%]	Reduction of colony formation [2]	Reduction of colony formation [3] [%]	Reduction of colony formation [4] [%]	ELISA on live cells (duplicates) CHO-3E7 [5]	Bmax (maximum specific binding) [6]	Effect on hNav1.7 currents (in words) [7]	ka [8] [M⁻¹ s⁻¹]	kd [8] [s⁻¹]	Binding to FC5 control (comment, in words) ([9]; SPR)	ka ([9]; target FC5) [M⁻¹ s⁻¹]	kd ([9]; target FC5) [s⁻¹]	Stabilization of FC5DIE3IR in response to mAb binding (residues, differential HDX-MS) [10]
NC1=N[C@H](O)[C@H]2[C@H]3O[C@]4(O)O[C@@H]([C@@H](O)[C@@]2(N1)[C@@H]4O)[C@]3(O)CO [TTX, tetrodotoxin, reference compound]	> 40	75% and 84%	70	55	–	–	–	–	–	–	–	–	–
B1	–	–	–	–	0.008	1.7	no effect; also recorded: did not reduce hNav1.7 currents	72900	0.0136	Binding to both	289000	0.017	no effect on conformational stability
